The target of the assay is T1, Replication protein A (RPA), consisting of Rfa1, Rfa2 and Rfa3 (budding yeast, UniProt P22336 1-621; P26754 1-273; P26755 1-122).
T1 construct: Rfa1, subunit of budding yeast RPA; Rfa2, subunit of budding yeast RPA; Rfa3, subunit of budding yeast RPA; also called budding yeast RPA protein; source: purified as described [83]; copies: + +
Put plainly: pull-down; streptavidin beads coated with biotinylated oligonucleotide bio-oligo(dN)80 (5 pmol), incubated with RPA (1 pmol) for 30 min, then with Mec1-Ddc2, Mec1-Ddc2-S4, MBP, MBP-Ddc2 or MBP-Ddc2-S4 (0.5 pmol) for 30 min; buffer B (20 mM Tris-HCl pH 7.5, 100 mM NaCl, 0.01% NP-40, 10% glycerol, 100 μg/ml BSA), 30°C; immunoblot of captured proteins. The following applies: both partners purified.

The text below walks through data of PMC6692047, “Ddc2^ATRIP promotes Mec1^ATR activation at RPA-ssDNA tracts” (PLoS Genetics, 2019).

T1 sequence (P22336 whole entry, chain 1 of 3): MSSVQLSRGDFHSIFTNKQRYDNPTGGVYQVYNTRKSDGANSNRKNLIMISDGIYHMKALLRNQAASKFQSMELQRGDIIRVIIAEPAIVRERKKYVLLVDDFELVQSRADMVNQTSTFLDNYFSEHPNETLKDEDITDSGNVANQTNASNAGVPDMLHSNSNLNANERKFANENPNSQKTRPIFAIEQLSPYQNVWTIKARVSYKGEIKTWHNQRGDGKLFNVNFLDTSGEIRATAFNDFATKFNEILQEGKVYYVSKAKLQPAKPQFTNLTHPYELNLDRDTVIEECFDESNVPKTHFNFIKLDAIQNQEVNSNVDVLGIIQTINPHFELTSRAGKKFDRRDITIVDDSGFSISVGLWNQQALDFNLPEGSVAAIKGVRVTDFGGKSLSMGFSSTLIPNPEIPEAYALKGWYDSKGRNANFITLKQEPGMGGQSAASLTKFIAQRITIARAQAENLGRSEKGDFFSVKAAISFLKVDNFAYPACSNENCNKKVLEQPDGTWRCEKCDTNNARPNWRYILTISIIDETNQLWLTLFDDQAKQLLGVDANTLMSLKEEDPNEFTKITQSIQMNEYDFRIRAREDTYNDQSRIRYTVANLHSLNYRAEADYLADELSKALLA
T1 sequence (P26754 whole entry, chain 2 of 3): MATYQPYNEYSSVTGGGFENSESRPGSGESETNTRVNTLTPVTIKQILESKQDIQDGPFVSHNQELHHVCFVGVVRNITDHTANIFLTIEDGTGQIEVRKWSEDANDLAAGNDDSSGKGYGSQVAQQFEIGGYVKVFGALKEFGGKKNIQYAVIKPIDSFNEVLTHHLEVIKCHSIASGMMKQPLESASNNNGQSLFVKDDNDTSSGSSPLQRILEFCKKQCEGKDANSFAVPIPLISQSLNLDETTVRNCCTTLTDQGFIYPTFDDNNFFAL
T1 sequence (P26755 whole entry, chain 3 of 3): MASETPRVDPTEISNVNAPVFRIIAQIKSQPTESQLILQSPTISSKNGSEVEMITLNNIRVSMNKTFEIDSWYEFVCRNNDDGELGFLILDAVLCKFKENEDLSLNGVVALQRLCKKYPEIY

B1: MBP-Ddc2 (natural protein, budding yeast, UniProt Q04377 1-747, looked up)
chain: MRRETVGEFSSDDDDDILLELGTRPPRFTQIPPSSAALQTQIPTTLEVTTTTLNNKQSKNDNQLVNQLNKAQGEASMLRDKINFLNIEREKEKNIQAVKVNELQVKHLQELAKLKQELQKLEDEKKFLQMEARGKSKREVITNVKPPSTTLSTNTNTITPDSSSVAIEAKPQSPQSKKRKISDNLLKKNMVPLNPNRIIPDETSLFLESILLHQIIGADLSTIEILNRLKLDYITEFKFKNFVIAKGAPIGKSIVSLLLRCKKTLTLDRFIDTLLEDIAVLIKEISVHPNESKLAVPFLVALMYQIVQFRPSATHNLALKDCFLFICDLIRIYHHVLKVPIHESNMNLHVEPQIFQYELIDYLIISYSFDLLEGILRVLQSHPKQTYMEFFDENILKSFEFVYKLALTISYKPMVNVIFSAVEVVNIITSIILNMDNSSDLKSLISGSWWRDCITRLYALLEKEIKSGDVYNENVDTTTLHMSKYHDFFGLIRNIGDNELGGLISKLIYTDRLQSVPRVISKEDIGMDSDKFTAPIIGYKMEKWLLKLKDEVLNIFENLLMIYGDDATIVNGEMLIHSSKFLSREQALMIERYVGQDSPNLDLRCHLIEHTLTIIYRLWKDHFKQLREEQIKQVESQLIMSLWRFLVCQTETVTANEREMRDHRHLVDSLHDLTIKDQASYYEDAFEDLPEYIEEELKMQLNKRTGRIMQVKYDEKFQEMARTILESKSFDLTTLEEADSLYISMGL
notes: Ddc2 (ATRIP homolog), budding yeast; also called MBP-fused Ddc2; pMAL-Ddc2; source: E. coli Rosetta, purified (amylose resin)
For B1, the binding result is listed as “binds”.

B2: MBP-Ddc2-S4 (natural protein, budding yeast, UniProt Q04377 1-747, looked up)
chain: MRRETVGEFSSDDDDDILLELGTRPPRFTQIPPSSAALQTQIPTTLEVTTTTLNNKQSKNDNQLVNQLNKAQGEASMLRDKINFLNIEREKEKNIQAVKVNELQVKHLQELAKLKQELQKLEDEKKFLQMEARGKSKREVITNVKPPSTTLSTNTNTITPDSSSVAIEAKPQSPQSKKRKISDNLLKKNMVPLNPNRIIPDETSLFLESILLHQIIGADLSTIEILNRLKLDYITEFKFKNFVIAKGAPIGKSIVSLLLRCKETLTLDRFIDTLLEDIAVLIKEISVHPNESKLAVPFLVALMYQIVQFRPSATHNLALKDCFLFICDLIRIYHHVLKVPIHESNMNLHVEPQIFQYELIDYLIISYSFDLLEGILRVLQSYPKQTYMEFFDENILKSFEFVYKLALTISYKPMVNVIFSAVEVVNIITSIILNMDNSSDLKSLISGSWWRDCITRLYALLEKEIKSGDVYNENVDTTTLHMSKYHDFFGLIRNIGDNELGGLISKLIYTDRLQSVPRVISKEDIGMDSDKFTAPIIGYKMEKWLLKLKDEVLNIFENLLMIYGDDATIVNGEMLIHSSKFLSREQALMIERYVGQDSPNLDLRCHLIEHTLTIIYRLWKDHFKQLREEQIKQVESQLIMSLWRFLVCQTETVTANEREMRDHRHLVDSLHDLTIKDQASYYEDAFEDLPEYIEEELKMQLNKRTGRIMQVKYDEKFQEMARTILESKSFDLTTLEEADSLYISMGL
notes: Ddc2 (ATRIP homolog), budding yeast, with the two ddc2-S4 substitutions; also called MBP-fused Ddc2-S4; pMAL-Ddc2-S4; source: E. coli Rosetta, purified (amylose resin)
On to B2, for which the binding result is on record as “binds”.
